The term Kd denotes the free concentration of one partner at which half of the binding sites on the other are occupied at equilibrium, for simple one-to-one binding. High values mean a looser complex, low ones a tighter complex.

Here are results for one molecule from patent publication US20060194276A1 (GOVERMMENT OF THE USA AS REPRESENTED BY THE SECRETARY OF …, published 2006).

The test addresses T1, human CD22 (human, UniProt P20273 20-847).
T1 construct: whole, on cells; Always presented on living CD22+ tumor cells (Raji for all numbers); also called CD22 antigen; target antigen
T1 sequence (looked up): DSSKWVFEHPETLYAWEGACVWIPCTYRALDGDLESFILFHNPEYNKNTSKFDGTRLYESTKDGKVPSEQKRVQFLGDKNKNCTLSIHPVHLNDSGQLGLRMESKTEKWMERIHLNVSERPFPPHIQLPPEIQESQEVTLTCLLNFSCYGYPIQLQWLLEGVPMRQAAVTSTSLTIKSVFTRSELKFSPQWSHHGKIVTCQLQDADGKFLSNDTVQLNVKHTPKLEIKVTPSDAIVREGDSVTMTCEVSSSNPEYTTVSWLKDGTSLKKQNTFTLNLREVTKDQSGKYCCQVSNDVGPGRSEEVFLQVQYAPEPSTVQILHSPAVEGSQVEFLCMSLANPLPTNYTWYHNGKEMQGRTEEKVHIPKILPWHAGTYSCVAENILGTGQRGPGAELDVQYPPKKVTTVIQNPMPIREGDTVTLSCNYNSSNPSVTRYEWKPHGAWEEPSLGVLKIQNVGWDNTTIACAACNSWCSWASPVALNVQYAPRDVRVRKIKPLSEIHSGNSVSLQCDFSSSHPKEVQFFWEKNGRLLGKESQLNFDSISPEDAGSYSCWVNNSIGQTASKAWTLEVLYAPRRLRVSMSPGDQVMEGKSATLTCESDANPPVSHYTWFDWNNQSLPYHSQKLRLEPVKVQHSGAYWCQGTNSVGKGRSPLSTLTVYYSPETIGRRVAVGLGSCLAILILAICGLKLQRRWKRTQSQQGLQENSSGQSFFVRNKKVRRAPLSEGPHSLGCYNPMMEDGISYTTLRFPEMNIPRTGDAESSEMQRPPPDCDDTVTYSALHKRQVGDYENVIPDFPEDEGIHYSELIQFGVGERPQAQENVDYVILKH
As to the kind of experiment: flow cytometry on CD22+ Raji cells, equilibrium binding, non-linear regression. The method, then: Specific binding of the constructs was determined by flow cytometry using the human CD22⁺ B cell lines Raji, Ramos, Daudi and CA46. Human T cell lines Jurkat and HUT102 were used as negative controls. Cells (5×10⁵) were incubated with 100 μl of a sample containing either the scFv fragments, or control antibodies, in FACS buffer (PBS, 0.1% NaN₃, 2% FBS) for 45 min at 4° C. in round bottom 96-well microtiter plates. Cells were pelleted at 200 g at 4° C. for 5 min and washed twice with 200 μl FACS buffer. […] Background fluorescence was determined by using cells incubated with 9E10 antibody and FITC-labeled anti-mouse antibody under the same conditions. Stained cells were analyzed on a FACScan Flow Cytometer (BD Bioscience, San Jose, Calif.), and median fluorescence intensity (MFI) was calculated using the CellQuest™ software (BD Bioscience).
Affinity measurements were performed as previously described (Benedict et al., J Immunol Methods 201:223-231, 1997) with the following modifications: Varying concentrations of antibodies were incubated in triplicate with 5×10⁵ Raji cells at room temperature in FACS buffer for two hours. Bound antibodies were detected under the same conditions, as described above. After two final washing steps, cells were fixed in PBS containing 2% paraformaldehyde for 15 minutes at room temperature and analyzed by flow cytometry. […]
In general terms: A flow cytometer gives signals particle by particle.

B1: murine monoclonal antibody RFB4 (antibody, V domains shown)
VH: EVQLVESGGGLVKPGGSLKLSCAASGFAFSIYDMSWVRQTPEKRLEWVAYISSGGGTTYYPDTVKGRFTISRDNAKNTLYLQMSSLKSEDTAMYYCARHSGYGSSYGVLFAYWGQGTLVTVSA
VL: DIQMTQTTSSLSASLGDRVTISCRASQDISNYLNWYQQKPDGTVKLLIYYTSILHSGVPSRFSGSGSGTDYSLTISNLEQEDFATYFCQQGNTLPWTFGGGTKLEIK
notes: also called mAb RFB4; murine mAb RFB4
As for B1, the Kd came to 2 nM.
